The record followed here is US20190083619A1, “METHODS AND COMPOSITIONS FOR REMOVING, REDUCING, DISPERSING, DISRUPTING OR ERADICATING BIOFILMS AND DETERMINING THE NUMBER OF BACTERIAL POPULATION IN BIOFILM OR A CULTURE CONTAINING BACTERIAL AGGREGATE” (INSTITUTE OF MICROBIOLOGY, CHINESE ACADEMY OF SCIENCES, priority 2017, published 2019).

One data set deals with ΔpaaP strain. Kind of data set: MIC by E test strips. The conditions noted are these: E test strip, 37° C. overnight; FIG. 9A. Format: cell-based, P. aeruginosa. As to the method: The MIC (minimum inhibition concentration) of ΔpaaP strain to tobramycin and ciprofloxacin, two antibiotics commonly used to treat P. aeruginosa infections, was tested by E test strips. Overnight culture was diluted to OD600˜0.1, and spread on the plate. The E test strip was put onto the plate, cultivated at 37° C. overnight, and the minimum inhibition concentration was recorded according to the E test strip.

In a further data set the test system is Psl production in PAO1. Kind of data set: Psl production by anti-Psl immunodot blotting. The class given is cell-based, P. aeruginosa. The conditions noted are these: 5 μM C12-HSL added to culture medium; FIG. 3D. As to the method:
To examine Psl production, exopolysaccharide Psl extracts were collected from overnight cultures equivalent to approximately 10 OD600 and examined by immunodot blotting using an anti-Psi antibody. For the effect of C12-HSL on Psl production, 5 μM C12-HSL was added to the medium after inoculation. The software Image Lab™ was used to quantify the immunodot blotting data.
LasI directs the synthesis of the QS signal molecular, N-(3-oxododecanoyl)-L-homoserine lactone (C12-HSL). Thus, whether C12-HSL supplement could affect Psl production in PAO1 was examined. […] C12-HSL is usually associated with the transcriptional regulator LasR to active their target genes.

Data set [1] has as its system psl transcription in PAO1. Nature of the data set: psl transcription detected by psl::gfp reporter plasmid. Format: cell-based, P. aeruginosa. The conditions noted are these: 5 μM C12-HSL added to PAO1 culture; FIG. 3E.
For the next data set, the system named is MJK8. Kind of data set: Dispersal of bacterial aggregates in liquid culture, OD600 read. The class given is cell-based, P. aeruginosa. The following applies: 100 nM PslG, Jensen's or LBNS medium, 3 h and 6 h; FIG. 13A, 13B. As to the method: (§1) PAO1-derived rugose small colony variant (RSCV) strain MJK8 was grown in LBNS at 37° C. 200 rpm overnight. This overnight culture was washed and then inoculated into Jensen's medium or in LBNS medium at 1:50 with or without 100 nM of PslG. Bacterial growth was determined by taking OD600 read at 3 h and 6 h post inoculation. P. stutzeri strain A1501 was firstly grown in LD medium at 30° C. 200 rpm overnight. The overnight culture was washed and inoculated into KLG^+ medium at 1:50 with or without 100 nM of PslG. OD600 was taken at 3 h, 6 h and 30 h post inoculation to monitor the bacterial growth. FIGS. 13A-13C show the comparison of OD600 read with or without PslG treatment of: MJK8 growth in chemically defined Jensen's medium (FIG. 13A); MJK8 growth in LBNS rich medium (FIG. 13B); A1501 growth in KLG^+ medium (FIG. 13C).

A further data set concerns A1501. The description is as above. The class given is cell-based, P. stutzeri. The conditions noted are these: 100 nM PslG, KLG+ medium, 3 h, 6 h, 30 h; FIG. 13C. As to the method:
as §1

For the next data set, the system named is PAO1 biofilms. Nature of the data set: Dispersal of air-liquid interface biofilms and live cell counting by CFU. Format: cell-based, P. aeruginosa. The following applies: 50 nM PslG, 30° C., 1 h, versus tissue homogenate and control; FIG. 14. As to the method:
The PAO1 strain was inoculated on LBNS solid medium plates and overnight incubated at 37° C. Then monoclones of the PAO1, collected from the LBNS solid medium plates, were inoculated in LBNS liquid medium and incubated at 37° C. overnight with shaking at 200 rpm. The culture was washed with PBS for once. Then the culture was inoculated in Jensen's liquid medium at 1:100 (V:V), and incubated at 30° C. in a 24-pore plate. Biofilms were formed at the air-liquid interface. The liquid under the biofilms was removed by a pipettor. The biofilms were washed with PBS for twice so as to remove free bacterial cells that are not embedded in the biofilms. The biofilms were added in PBS for subsequent treatment. For a tissue homogenate treatment group, a sterile glass homogenizer (1 mL) was used to homogenize the biofilms for three times. For PslG treatment group, PslG was added to the biofilms, and the final concentration of PslG is 50 nM. The biofilms were incubated at 30° C. for 1 h. For a control group, no treatment was performed on the biofilms at this stage. Afterwards, the biofilm samples from the tissue homogenate treatment group, the PslG treatment group, and the control group were homogenized using a pipette and then votexed. The biofilm samples were diluted in PBS at 1:10. […] The numbers of live cells in the biofilm samples was determined based on the CFUs.

The nature of data set [2]: In vitro treatment of Psl extract, elution profile on Sephadex G-50 column. The class given is biochemical, P. aeruginosa. The conditions noted are these: exogenous-supplied PslG in vitro; FIG. 8B. On the procedure:
The Psl extract from biofilm was prepared, fractionated on a Sephadex G-50 column, and irrigated with water at 0.67 ml/min. The total carbohydrate in each fraction (5 ml) was assayed colorimetrically for aldose. Briefly, 200 μl of each fraction was mixed with 100 μl 5% phenol and 500 μl concentrated sulfuric acid, reacted at room temperature for 30 minutes, and measured (OD492).
To confirm, the Psl extracted from PAO1 biofilms was treated with exogenous-supplied PslG in vitro.

Data set [3] concerns the target T1, (2S,3R)-3-Amino-2-hydroxy-5-methylhexanoyl-Val-Val-Asp (Amastatin).
T1 chain: VVD

For the molecule `O=C(O)c1cn(C2CC2)c2cc(N3CCNCC3)c(F)cc2c1=O` [ciprofloxacin], the “MIC of ΔpaaP, fold lower than PAO1” value in the data set on ΔpaaP strain is 8 fold.
Consider `CCCCCCCCCC(=O)CC(=O)N[C@H]1CCOC1=O` [C12-HSL, N-(3-oxododecanoyl)-L-homoserine lactone], for which, in the data set with Psl production in PAO1, the “effect on Psl production” value is reported as “did increase Psl production in PAO1”. In addition, in data set [1], the “effect on psl transcription” value was “psl transcription was enhanced”.

B1: PslG: glycosyl hydrolase of P. aeruginosa that degrades the Psl exopolysaccharide matrix; amino acid sequence SEQ ID NO: 6 (protein)
chain: EIQVLKAPRAVVWKDFLGVNAQFLWFSPERYNKQIDRLQDLGLEWVRLDLHWDRLETAEDQYQLASLDQLVKDLEARQLKSVFYLVGSARFITTAPFYSPFQDQYPPRDPEVFARRMAMLSQRYPSVAAWQVWNEPNLIGFWRPKADPEGYAKLLQASTIALRMVDPEKPVVSAGMAFFSEMPDGRTMFDALGHLGVESLGTIATYHPYTQLPEGNYPWNLDFVSHANQINRALRNAGVPAIWSTEWGWSAYKGPKELQDIIGVEGQADYVLRRLALMSALDYDRIFLFTLSDLDQRASVRDRDYGLLDLDANPKPVYLALQRFLKVTGPKLRPADPPVTEDLPDGSFSIGWTREDGRNVWLFWSARGGNVRLPKLKEATLHDPLSGKVTPLSGSDGLEVPVKSSLQMLVWE
B1: the “dispersal of flocs in liquid culture” value with MJK8 is “can disperse the flocs of MJK8 and A1501 in liquid culture”; with A1501, “can disperse the flocs of MJK8 and A1501 in liquid culture”. Besides, the “number of detected CFUs for treated biofilms” value with PAO1 biofilms was “significantly greater than the number of detected CFUs for the biofilms treated by tissue homogenate, and the biofilms in the control group”. The “elution profile of PslG-degraded Psl” value in data set [2] is reported as “showed a very similar profile as Psl extracted from the ΔpaaP biofilm”.

B2: P. aeruginosa aminopeptidase (PaAP) (protein)
chain: APSEAQQFTEFWTPGKPNPSICKSPLLVSTPLGLPRCLQASNVVKRLQKLEDIASLNDGNRAAATPGYQASVDYVKQTLQKAGYKVSVQPFPFTAYYPKGPGSLSATVPQPVTYEWEKDFTYLSQTEAGDVTAKVVPVDLSLGAGNTSTSGCEAEDFANFPAGSIALIQRGTCNFEQKAENAAAAGAAGVIIFNQGNTDDRKGLENVTVGESYEGGIPVIFATYDNGVAWSQTPDLQLHLVVDVVRKKTETYNVVAETRRGNPNNVVMVGAHLDSVFEGPGINDNGSGSAAQLEMAVLLAKALPVNKVRFAWWGAEEAGLVGSTHYVQNLAPEEKKKIKAYLNFDMIGSPNFGNFIYDGDGSDFGLQGPPGSAAIERLFEAYFRLRGQQSEGTEIDFRSDYAEFFNSGIAFGGLFTGAEGLKTEEQAQKYGGTAGKAYDECYHSKCDGIANINQDALEIHSDAMAFVTSWLSLSTKVVDDEIAAAGQKAQSRSLQMQKSASQIERWGHDFIK
With B2, the “PaAP catalytic activity (hydrolysis of Leu-p-nitroanilide, 7 nM PaAP with 10, 20, 30 µM Amastatin or without)” value in data set [3] was “the Amastatin may inhibit the enzyme activity of PaAP at micromolar concentrations, and the inhibition effect may increase with higher concentration of Amastatin”.
